# According to the supplement of paper PMC10567573:
# B1: NEK8 (parent)
# chain: VVGTPCYISPELCEGKPYNQKSDI
# Variants of: B1
# Assay: protein stability index of a GFP-peptide fusion (GPS, HEK-293T) (PSI 1-6); higher = more stable
# Conditions: c terminus: a fixed tail appended
# 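Note: lentivirally expressed fusions sorted by FACS into six bins by GFP to DsRed ratio, PSI derived from sequencing read proportions per bin multiplied by bin number.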
row,Variant,protein stability index
1,VAGTPCYISPELCEGKPYNQKSDI [V2A],3.49
2,VDGTPCYISPELCEGKPYNQKSDI [V2D],3.9
3,VCGTPCYISPELCEGKPYNQKSDI [V2C],2.89
4,VVGTPCPISPELCEGKPYNQKSDI [Y7P],4.16
5,VVGTPCCISPELCEGKPYNQKSDI [Y7C],4.16
6,VVGTPCEISPELCEGKPYNQKSDI [Y7E],4.5
7,VVGTPCTISPELCEGKPYNQKSDI [Y7T],4.36
8,VVGTPCWISPELCEGKPYNQKSDI [Y7W],2.82
9,VVGTPCRISPELCEGKPYNQKSDI [Y7R],3.96
10,VVGTPCVISPELCEGKPYNQKSDI [Y7V],4.04
11,VVGTPCFISPELCEGKPYNQKSDI [Y7F],3.05
12,VVGTPCQISPELCEGKPYNQKSDI [Y7Q],4.35
13,VVGTPCSISPELCEGKPYNQKSDI [Y7S],3.69
14,VVGTPCNISPELCEGKPYNQKSDI [Y7N],4.52
15,VVGTPCGISPELCEGKPYNQKSDI [Y7G],3.98
16,VVGTPCYISPELDEGKPYNQKSDI [C13D],3.34
17,VVGTPCYISPELHEGKPYNQKSDI [C13H],2.92
18,VVGTPCYISPELYEGKPYNQKSDI [C13Y],2.79
19,VVGTPCYISPELWEGKPYNQKSDI [C13W],1.92
20,VVGTPCYISPELVEGKPYNQKSDI [C13V],2.95
21,VVGTPCYISPELQEGKPYNQKSDI [C13Q],2.79
22,VVGTPCYISPELCEGYPYNQKSDI [K16Y],1.96
23,VVGTPCYISPELCEGMPYNQKSDI [K16M],2.81
24,VVGTPCYISPELCEGWPYNQKSDI [K16W],1.55

row,Variant,protein stability index
1,VVGTPCYISPELCEGNPYNQKSDI [K16N],3.13
2,VVGTPCYISPELCEGPPYNQKSDI [K16P],2.15
3,VVGTPCYISPELCEGLPYNQKSDI [K16L],2.07
4,VVGLPCYISPELCEGKPYNQKSDI [T4L],2.39
5,VVGMPCYISPELCEGKPYNQKSDI [T4M],2.78
6,VVGDPCYISPELCEGKPYNQKSDI [T4D],3.72
7,VVGRPCYISPELCEGKPYNQKSDI [T4R],2.79
8,VVGVPCYISPELCEGKPYNQKSDI [T4V],1.99
9,VVGGPCYISPELCEGKPYNQKSDI [T4G],3.34
10,VVGSPCYISPELCEGKPYNQKSDI [T4S],3.68
11,VVGYPCYISPELCEGKPYNQKSDI [T4Y],2.25
12,VVGIPCYISPELCEGKPYNQKSDI [T4I],1.75
13,VVGTVCYISPELCEGKPYNQKSDI [P5V],1.89
14,VVGTTCYISPELCEGKPYNQKSDI [P5T],3.32
15,VVGTCCYISPELCEGKPYNQKSDI [P5C],2.56
16,VVGTDCYISPELCEGKPYNQKSDI [P5D],2.98
17,VVGTRCYISPELCEGKPYNQKSDI [P5R],2.76
18,VVGTGCYISPELCEGKPYNQKSDI [P5G],3.27
19,VVGTKCYISPELCEGKPYNQKSDI [P5K],3.18
20,VVGTPCYISPELCEGKPYNQASDI [K21A],2.99
21,VVGTPCYISPELCEGKPYNQISDI [K21I],1.97
22,VVGTPCYISPELCEGKPYNQDSDI [K21D],2.93
23,VVGTPCYISPELCEGKPYNQESDI [K21E],2.48
24,VVGTPCYISPELCEGKPYNQVSDI [K21V],1.99

row,Variant,protein stability index
1,VVGTPCYISPELCEGKPYNQRSDI [K21R],2.26
2,VVGTPCYISPELCEGKPYNQGSDI [K21G],2.79
3,VVGTPCYISPELCEGKPYNQSSDI [K21S],3.01
4,VVGTPCYISPELCEGKPYNQYSDI [K21Y],2.2
5,VVGTPCYISPELCEGKWYNQKSDI [P17W],1.65
6,VVGTPCYISPELCEGKMYNQKSDI [P17M],2.35
7,VVGTPCYISPELCEGKKYNQKSDI [P17K],2.99
8,VVGTPCYISPELCEGKFYNQKSDI [P17F],1.99
9,VVGTPCYISPELCEGKHYNQKSDI [P17H],2.9
10,VVGTPCYISPELCEGKGYNQKSDI [P17G],2.76
11,VVGTPCYISPELCEGKLYNQKSDI [P17L],2.23
12,VVGTPCYISPELCEGKSYNQKSDI [P17S],3.02
13,VVGTPCYISPELCEGKPYNMKSDI [Q20M],2.22
14,VVGTPCYISPELCEGKPYNAKSDI [Q20A],2.44
15,VVGTPCYISPELCEGKPYNWKSDI [Q20W],1.89
16,VVGTPCYISPELCEGKPYNLKSDI [Q20L],2.55
17,VVGTPCYISPELCEGKPYNYKSDI [Q20Y],2.14
18,VVGTPCYISPELCEGKPYNTKSDI [Q20T],2.48
19,VVGTPCYISPELCEGKPYNIKSDI [Q20I],2.24
20,VVGTPCYISPELCEGKPYIQKSDI [N19I],2.38
21,VVGTPCYISPELCEGKPYCQKSDI [N19C],2.46
22,VVGTPCYISPELCEGKPYSQKSDI [N19S],3.1
23,VVGTPCYISPELCEGKPYGQKSDI [N19G],2.48
24,VVGTPCYISIELCEGKPYNQKSDI [P10I],1.49

row,Variant,protein stability index
1,VVGTPCYISSELCEGKPYNQKSDI [P10S],3.39
2,VVGTPCYISTELCEGKPYNQKSDI [P10T],2.74
3,VVGTPCYISVELCEGKPYNQKSDI [P10V],1.75
4,VVGTPCYISWELCEGKPYNQKSDI [P10W],1.9
5,VVGTPCYISGELCEGKPYNQKSDI [P10G],3.56
6,VVGTPCYIMPELCEGKPYNQKSDI [S9M],2.4
7,VVGTPCYIYPELCEGKPYNQKSDI [S9Y],1.55
8,VVGTPCYIEPELCEGKPYNQKSDI [S9E],3.16
9,VVGTPCYIQPELCEGKPYNQKSDI [S9Q],2.62
10,VVGTPCYIKPELCEGKPYNQKSDI [S9K],3.61
11,VVGTPCYIHPELCEGKPYNQKSDI [S9H],2.04
12,VVGTPCYINPELCEGKPYNQKSDI [S9N],2.31
13,WVGTPCYISPELCEGKPYNQKSDI [V1W],2.62
14,FVGTPCYISPELCEGKPYNQKSDI [V1F],1.22
15,MVGTPCYISPELCEGKPYNQKSDI [V1M],3.42
16,GVGTPCYISPELCEGKPYNQKSDI [V1G],4.28
17,NVGTPCYISPELCEGKPYNQKSDI [V1N],4.48
18,DVGTPCYISPELCEGKPYNQKSDI [V1D],4.53
19,HVGTPCYISPELCEGKPYNQKSDI [V1H],2.77
20,VVGTPCYISPEQCEGKPYNQKSDI [L12Q],2.71
21,VVGTPCYISPEACEGKPYNQKSDI [L12A],3.1
22,VVGTPCYISPEPCEGKPYNQKSDI [L12P],3.6
